# Results as given in patent publication US11203633B2, “Polynucleotides encoding antibodies or antigen binding fragments thereof that bind pseudomonas perv” (priority 2011, dated 2021).
# Numbering of substitutions follows the chain as printed.
# B1: 29D2: anti-PcrV mAb, epitope class 3 (antibody, V domains shown)
# VH: EVQLLESGGGLVQPGGSLRLSCAASGFTFSSYAMSWVRQAPGKGLEWVSAISGSGYSTYYADSVKGRFTMSRDNSKNTLYLQMNSLRAEDTAVYYCAAEYSISSNYYYGMDVWGQGTTVTVSS
# VL: DIQLTQSPSFLSASVGDRVTITCWASQGISSYLAWYQQKPGKAPKLLIYAASTLQSGVPSRFSGSGSGTEFTLTISSLQPEDFATYYCQQLNSSPLTFGGGTKVEIK
# modifications: 29D2 VH; 29D2 VL
# B2: V2L2: anti-PcrV monoclonal antibody; VH SEQ ID NO:216, VL SEQ ID NO:217 (antibody, V domains shown)
# VH: EMQLLESGGGLVQPGGSLRLSCAASGFTFSSYAMNWVRQAPGEGLEWVSAITISGITAYYTDSVKGRFTISRDNSKNTLYLQMNSLRAGDTAVYYCAKEEFLPGTHYYYGMDVWGQGTTVTVSS
# VL: AIQMTQSPSSLSASVGDRVTITCRASQGIRNDLGWYQQKPGKAPKLVIYSASTLQSGVPSRFSGSGSGTDFTLSISSLQPDDFATYYCLQDYNYPWTFGQGTKVEIK
# modifications: V2L2 VH; V2L2 VL
# B3: V2L2-GL: V2L2-germlined mAb (antibody, V domains shown)
# VH: B2 VH with M2V, E43K, G89E
# VL: B2 VL
# modifications: V2L2-GL VH; V2L2-MD and V2L2-GL VL
# notes: V2L2-germlined mAb
# B4: Psl0225: lead optimized anti-Psl clone; VH SEQ ID NO:290, VL SEQ ID NO:291 (antibody, V domains shown)
# VH: QVQLQESGPGLVKPSETLSLTCTVSGGSISPYYWTWIRQPPGKGLELIGYIHSSGYTDYNPSLKSRVTISGDTSKKQFSLKLSSVTAADTAVYYCARAMDIEPHALDIWGQGTMVTVSS
# VL: DIQLTQSPSSLSASVGDRVTITCRASQSIRSHLNWYQQKPGKAPKLLIYGASNLQSGVPSRFSGSGSGTDFTLTISSLQPEDFATYYCQQSDDGFPNFGGGTKVEIK
# modifications: Psl0225-Germline VH; Psl0225-Germline VL
# B5: Psl0588: lead optimized anti-Psl clone; VH SEQ ID NO:292, VL SEQ ID NO:293 (antibody, V domains shown)
# VH: B4 VH with M99D, I101P, E102F, H104G, A105Y
# VL: B4 VL with D93T, G94F, F95P, P96L, N97K
# modifications: Psl0588-Germline VH
# B6: Psl0337: lead optimized anti-Psl clone; VH SEQ ID NO:295, VL SEQ ID NO:296 (antibody, V domains shown)
# VH: B4 VH with M99D, D100W, I101D, E102H, P103K
# VL: B4 VL with Q90D, D92S, D93S, G94W, F95P, P96L, N97T
# modifications: Psl0337-Germline VH; Psl0337-Germline VL
# Experiments:
# [1] = tested on: P. aeruginosa strains (PAO1, 33356, 6294, 6077, 6206, PA103A); test: Acute pneumonia model in mice, survival; assay type: in vivo, Pseudomonas aeruginosa; settings: for protection in vivo: strain 6077 (1×10^6 CFU/animal) intranasal, mAbs IP 24 hours prior, 11A6, 3G5, V2L7 5 or 1 mg/kg, 29D2 and V2L2 25 mg/kg, FIG. 13E-G
# Method: (§1) Antibodies or PBS were administered 24 hours before infection in each model. P. aeruginosa acute pneumonia, keratitis, and thermal injury infection models were performed as described (DiGiandomenico, A., et al., Proc Natl Acad Sci USA 104, 4624-4629 (2007)), with modifications. In the acute pneumonia model, BALB/c mice (The Jackson Laboratory) were infected with P. aeruginosa strains suspended in a 0.05 ml inoculum. In the thermal injury model, CF-1 mice (Charles River) received a 10% total body surface area burn with a metal brand heated to 92° C. for 10 seconds. Animals were infected subcutaneously with P. aeruginosa strain 6077 at the indicated dose. For organ burden experiments, acute pneumonia was induced in mice followed by harvesting of lungs, spleens, and kidneys 24 hours post-infection for determination of CFU.
# The in vivo effect of administration of an anti-PcrV antibodies was studied in mice using an acute pneumonia model. Groups of mice were treated with either increasing concentrations of the V2L2 antibody, a positive control anti-PcrV antibody (mAb166), or a negative control (R347), as shown in FIG. 13 (A-B). Groups of mice were also treated with either increasing concentrations of the V2L2 antibody, the PcrV antibody PcrV-02, or a negative control (R347), as shown in FIG. 13 (C-D). Twenty-four hours after treatment, all mice were infected with 5×10^7 CFU (C) Pseudomonas aeruginosa 6294 (06) or (D) PA103A (O11).
# Groups of mice were treated with either increasing concentrations of the 11A6, 3G5 or V2L7, the same concentrations of 29D2, 1F3, 1E6, V2L2, LE10, SH3, 4A8, 2H3, or 21F1, increasing concentrations of the 29D2, increasing concentrations of the V2L2, the PcrV antibody PcrV-02, or a negative control (R347), as shown in FIG. 13 (E-H). Mice were injected intraperitoneally (IP) with mAbs 24 hours prior to intranasal infection with Pseudomonas strain 6077 (1×10^6 CFU/animal).
# [2] = tested on: P. aeruginosa (6077 exoU+; 6206) lysis of rabbit red blood cells; test: Rabbit red blood cell (RBC) lysis inhibition assay; assay type: cell-based, Pseudomonas aeruginosa; settings: for prevention of RBC lysis: strain 6077, FIG. 12D-E
# Method: Percent inhibition of cytotoxicity analysis was analysed for the parental V2L2 mAb, mAb166 (positive control) and R347 (negative control), where the antibodies were administered to cultured broncho-epithelial cell line A549 combined with log-phase P. aeruginosa strain 6077 (exoU+) at a MOI of approximately 10. A549 lysis was assayed by measuring released lactate dehydrogenase (LDH) activity and lysis in the presence of mAbs was compared to wells without mAb to determine percent inhibition. The V2L2 mAb, mAb166 (positive control) and R347 (negative control) were evaluated for their ability to prevent lysis of RBCs, where the antibodies were mixed with log-phase P. aeruginosa 6077 (exoU^+) and washed rabbit red blood cells (RBCs) and incubated for 2 hours at 37°. Intact RBCs were pelleted and the extent of lysis determined by measuring the OD405 of the cell-free supernatant. Lysis in the presence of anti-PcrV mAbs was compared to wells without mAb to determine percent inhibition. The positive control antibody, mAb166, is a previously characterized anti-PcrV antibody (J Infect Dis. 186: 64-73 (2002), Crit Care Med. 40: 2320-2326 (2012)).
# [3] = tested on: P. aeruginosa strains 6206 and 6294; test: Acute pneumonia model in mice, histological examination of lung tissue; assay type: in vivo, Pseudomonas aeruginosa
# [4] = tested on: P. aeruginosa strains (PAO1, 33356, 6294, 6077, 6206); test: Acute pneumonia model in mice, organ burden (CFU in lung, spleen, kidneys); assay type: in vivo, Pseudomonas aeruginosa
# Method: as §1
# Organ burden of Pseudomonas-infected mice was also studied in response to administration of V2L2. FIG. 14 (A) Mice were treated with either 1 mg/kg R347 (control), or 1 mg/kg, 0.2 mg/kg, or 0.07 mg/kg of V2L2 and then were infected intranasally with 1.2×10^6 cfu of Pseudomonas 6206. FIG. 14 (B) Mice were also treated with either 15 mg/kg R347 (negative control); 15.0 mg/kg, 5.0 mg/kg, or 1.0 mg/kg mAb166 (positive control); or 5.0 mg/kg, 1.0 mg/kg, or 0.2 mg/kg V2L2 and then were infected intranasally with 5.5×10^6 cfu of Pseudomonas 6206.
# The in vivo effect of combination administration of anti-Psl and anti-PcrV binding domains was further studied in mice using the antibodies V2L2 and WapR-004 (RAD). Groups of mice were treated with R347 (2.1 mg/kg—negative control), V2L2 (0.1 mg/kg), W4-RAD (0.5 mg/kg), or V2L2/W4 combination (either 0.1, 0.5, 1.0 or 2.0 mg/kg each). Twenty-four hours post-administration of antibody, all mice were infected with an inoculum containing 5.25×10^5 cfu 6206 (O11-ExoU+). Twenty-four hours post infection, lungs, spleens, and kidneys were harvested, homogenized, and plated for colony forming unit (CFU) identification per gram of tissue.
# [5] = tested on: luminescent P. aeruginosa serogroup 05 strain (PAO1.lux); test: Opsonophagocytic killing (OPK) assay, PAO1.lux; assay type: cell-based, Pseudomonas aeruginosa; settings: FIG. 11 A-Q
# Method: This example describes the evaluation of prioritized human IgG1 antibodies to promote OPK of P. aeruginosa. […] OPK assays were performed as described in (DiGiandomenico, A., et al., Infect Immun 72, 7012-7021 (2004)), with modifications. Briefly, assays were performed in 96-well plates using 0.025 ml of each OPK component; P. aeruginosa strains; diluted baby rabbit serum; differentiated HL-60 cells; and monoclonal antibody. In some OPK assays, luminescent P. aeruginosa strains, which were constructed as described (Choi, K. H., et al., Nat Methods 2, 443-448 (2005)), were used. Luminescent OPK assays were performed as described above but with determination of relative luciferase units (RLUs) using a Perkin Elmer ENVISION Multilabel plate reader (Perkin Elmer).
# [6] = Table 5, 6206 5.25×10^5 cfu, R347 2.1 mg/kg, V2L2 0.1 mg/kg, WapR-004 0.5 mg/kg
# [7] = Table 6A, strain 6294 1.33×10^7 CFU, 0.2 mg/kg (combination 0.1 mg/kg ea)
# [8] = Table 6B, strain 6294 1.7×10^7 CFU, 0.2 mg/kg (combination 0.1 mg/kg ea)
# [9] = Table 7, strain 6206 9.25×10^5 CFU, 0.2 mg/kg (combination 0.1 mg/kg ea)
# [10] = strain 6206 intranasal, V2L2 0.07-5 mg/kg, FIG. 14A-B
molecule,measurement,setting,value
B1,protection in vivo,[1],provides protection in vivo
same,prevention of RBC lysis,[2],demonstrated prevention of RBC lysis
B2,survival,"[1]; 6206, Bs3-V2L2 0.28 mg/kg, V2L2 0.2 mg/kg, monitored 120 hours, FIG. 21A",survived
same,protection against additional strains,"[1]; 6294 and PA103A, 0.04-5 mg/kg, FIG. 13I","protects against additional Pseudomonas strains (i.e., 6294 and PA103A)"
same,survival,"[1]; increasing concentrations 24 hours before infection, strains 6077, 6294, PA103A, FIG. 13A-D",dose-dependent effect on improved survival even out to 168 hours post-infection
same,protection compared to mAb166,"[1]; similar doses, strains 6077 and 6294, FIG. 13A-B",significantly more potent protection than mAb166 at similar doses
same,protection in vivo,[1],provides protection in vivo
same,Inflammatory Infiltrate,[3]; [6],PMN 3+
same,Involved Lung Surface Area,[3]; [6],55%
same,Overall Impression,[3]; [6],Broncho interstitial pneumonia
same,Overall Impression,"[3]; Table 6A, BALB/c mice, strain 6294 1.33×10^7 CFU, 0.2 mg/kg (combination 0.1 mg/kg ea)",Broncho interstitial pneumonia
same,Bacteria,[3]; [7],Neg-1+
same,Hemorrhage (extent),[3]; [7],Extensive
same,Inflammatory Infiltrate,[3]; [7],PMN 3+
same,Involved Lung Surface Area,[3]; [7],"(57%), mild epithelial injury,"
same,Overall Impression,"[3]; Table 6B, BALB/c mice, strain 6294 1.7×10^7 CFU, 0.2 mg/kg (combination 0.1 mg/kg ea)",Broncho interstitial pneumonia
same,Bacteria,[3]; [8],Neg
same,Inflammatory Infiltrate,[3]; [8],PMN 2+
same,Involved Lung Surface Area,[3]; [8],"(30%), mild epithelial injury,"
same,Overall Impression,"[3]; Table 7, BALB/c mice, strain 6206 9.25×10^5 CFU, 0.2 mg/kg (combination 0.1 mg/kg ea)",Broncho interstitial pneumonia
same,Inflammatory Infiltrate,[3]; [9],PMN 2-3+
same,Involved Lung Surface Area,[3]; [9],"(40%), mild epithelial injury,"
same,organ burden,"[4]; 6206 (O11-ExoU+) 5.25×10^5 cfu, V2L2 0.1 mg/kg, W4-RAD 0.5 mg/kg, FIG. 15",effective in lowering organ burden
same,reduction in organ CFU compared to mAb166,"[4]; strain 6206, similar doses, FIG. 14B",significantly greater reduction in organ CFU than mAb166 at similar doses
same,clearance in the kidney,[4]; [10],little effect on clearance in the kidney
same,dissemination to lung and spleen,[4]; [10],greatly reduced dissemination to both the lung and spleen in a dose-dependent manner
same,"potency in prevention of RBC lysis, V2L2 vs 29D2",[2]; FIG. 12F,more potent in prevention of RBC lysis than the 29D2
B3,prevention of RBC lysis,[2],demonstrated prevention of RBC lysis
B4,OPK activity of lead optimized anti-Psl mAbs,[5],enhanced OPK activity
B5,OPK activity of lead optimized anti-Psl mAbs,[5],enhanced OPK activity
B6,OPK activity of lead optimized anti-Psl mAbs,[5],enhanced OPK activity
